Measured values published in US20050136043A1, “TGFbeta signaling inhibitors” (Ludwig Institute for Cancer Research, priority 2003, published 2005).
No end group written: not given here.

Molecular target: GST-TβR-I (GST fused to the cytoplasmic part, residues 148-503, of constitutively active TβR-I T204D, FLAG-tagged at the C-terminus), P36897
Experiment: cell-based or functional assay

Sequence of GST-TβR-I (GST fused to the cytoplasmic part, residues 148-503, of constitutively active TβR-I T204D, FLAG-tagged at the C-terminus), P36897 (P36897 148-503 T204D, form in doubt): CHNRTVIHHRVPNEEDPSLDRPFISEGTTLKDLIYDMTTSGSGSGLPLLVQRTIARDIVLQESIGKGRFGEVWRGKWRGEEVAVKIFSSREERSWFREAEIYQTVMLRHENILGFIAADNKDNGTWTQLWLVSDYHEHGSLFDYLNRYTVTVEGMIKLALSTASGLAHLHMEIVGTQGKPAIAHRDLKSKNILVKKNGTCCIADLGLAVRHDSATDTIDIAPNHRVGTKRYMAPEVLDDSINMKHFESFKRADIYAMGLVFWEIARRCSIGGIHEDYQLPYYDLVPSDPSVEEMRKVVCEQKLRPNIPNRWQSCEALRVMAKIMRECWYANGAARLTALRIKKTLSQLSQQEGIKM

Binder | peptide concentration at which the effect was observed, in vitro kinase assay [µM] | peptide concentration of maximal inhibition, in vitro kinase assay [µM]
RQIKIWFQNRRMKWKKTQMGSPSVRCSSMS-OH [antp-Sm2S peptide (penetratin fused to the C-terminus of wild-type Smad2)] | 10 | 200
RQIKIWFQNRRMKWKKTQMGSPSVRCSAMA-OH | 10 | 200
